These results are taken from US20240409645A1 (DUALYX, published 2024).

The term EC50 denotes the concentration that produces a half-maximal response. As usually defined, the koff is the first-order rate constant of dissociation.

Where a chain is given by its changes, count along the chain named.

The chains are these.
T1: human IL-2Rγ (common cytokine receptor γ-chain) (human, UniProt P31785 23-262, limits assumed)
T1 construct: Recombinant human IL-2Rγ protein coated on the ELISA plate or immobilised on the CM5 chip; also called hu IL-2R; CD132
T1 sequence: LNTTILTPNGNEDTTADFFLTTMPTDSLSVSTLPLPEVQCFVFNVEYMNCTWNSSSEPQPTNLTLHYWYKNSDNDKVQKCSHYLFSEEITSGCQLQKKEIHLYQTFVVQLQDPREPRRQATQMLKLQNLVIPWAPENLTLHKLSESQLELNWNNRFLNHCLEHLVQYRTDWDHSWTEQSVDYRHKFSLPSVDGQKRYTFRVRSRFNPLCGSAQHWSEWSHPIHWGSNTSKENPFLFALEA

T2: cynomolgus monkey IL-2Rα/CD25 subunit (cynomolgus monkey, UniProt H6WS54 22-213)
T2 construct: also called Cyno IL-2R subunit
T2 sequence: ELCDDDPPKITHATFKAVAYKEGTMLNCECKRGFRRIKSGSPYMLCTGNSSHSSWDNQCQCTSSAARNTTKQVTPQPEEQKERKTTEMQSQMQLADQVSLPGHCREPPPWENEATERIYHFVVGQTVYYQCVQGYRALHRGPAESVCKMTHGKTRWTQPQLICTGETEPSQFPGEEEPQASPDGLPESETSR

T3: human interleukin-2 receptor α-chain (IL-2Rα; CD25), recombinant protein (human, UniProt P01589 22-240, limits assumed)
T3 construct: also called huIL2R-a; hIL-2RA
T3 sequence: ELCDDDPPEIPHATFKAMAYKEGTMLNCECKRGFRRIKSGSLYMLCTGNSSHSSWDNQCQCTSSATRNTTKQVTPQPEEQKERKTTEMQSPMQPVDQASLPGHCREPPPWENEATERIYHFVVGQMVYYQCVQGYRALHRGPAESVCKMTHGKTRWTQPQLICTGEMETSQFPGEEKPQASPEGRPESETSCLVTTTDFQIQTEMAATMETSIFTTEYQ

T4: human interleukin-2 receptor β-chain (IL-2Rβ; CD122), recombinant protein (human, UniProt P14784 27-240)
T4 construct: also called human IL-2R subunit CD122
T4 sequence: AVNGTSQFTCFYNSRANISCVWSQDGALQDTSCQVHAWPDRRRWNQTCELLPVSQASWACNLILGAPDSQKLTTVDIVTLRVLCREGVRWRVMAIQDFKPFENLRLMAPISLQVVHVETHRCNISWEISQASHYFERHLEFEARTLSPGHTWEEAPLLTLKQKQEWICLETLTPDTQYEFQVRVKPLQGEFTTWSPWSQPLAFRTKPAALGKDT

B1: FJ1427_P035MP07A12 (VHH)
VHH: QVQLQESGGGLVQAGGSLRLSCAASGRTLSRYAMGWFRQAPGSEREFVAASSWGGDTFYADSVEGRFTFSRDNAKNAVYLQMNSLQPEDTAAYYCAAAPTSFPTTAYSSSNSYAYWGQGTQVTVSS
notes: Tested as soluble VHH fragment in periplasmic extract (P.E.); also called Clone nr
B2: FJ1427_P035MP07C11 (VHH)
VHH: B1 VHH with Q5V, G16A, S43K, F58Y, A92V, A97G, P103A
notes: as for B1
B3: 11-MP05H04 VHH-hFc, monospecific bivalent (Fc fusion)
chain: QLQLVESGGGLVQAGGSLRLSCAASGLTFEGYAIGWFRQAPGKEREGVSYITGSDGTTYYINSVKGRFTISSDNAKSTVYLQMNTLKPEDTAVYYCAVDRLGSQGRYASAWWRSGDMDLWGKGTQVTVSS
notes: IgG1 Fc LALA-PG; not shown: human IgG1 CH2 and CH3 domains (Fc)
B4: 12-MP05B12 VHH-hFc, monospecific bivalent (Fc fusion)
chain: QVQLVESGGGLVQAGGSLRLSCAASGFTFDGYAIGWFRQAPGKEREGVSYITGSDGSTYYADSVKGRFTISSNNAKNTVYLHMNSLKPDDAAVYYCAIDRLGSRGAYVPIWWRSSDMDLWGKGTLVTVSS
notes: as for B3
B5: 13-MP05E12 VHH-hFc, monospecific bivalent (Fc fusion)
chain: QVQLQESGGGLVQAGDSLRLSCAASGFNFGWHAMGWFRQAPGKEREFVATITWTGRDTYYADSVRGRFTISKDNAKDTLFLQMNSLRPDDTGVYYCAKARERATWAYSEDDCDYWGQGTQVTVSS
notes: as for B3
B6: 16-MP02B08 VHH (periplasmic extract) (VHH)
VHH: EVQLVESGGGLVQAGGSLRLSCAASGRAIENYPVGWFRQAPGKEREFVAAITWISGSTLYADSVKGRFTISRDNAKNTVYLQMSSLKPEDTALYYCAAALKTITRGQNDYSYWGQGTQVTVSS
notes: soluble VHH in periplasmic extract
B7: 19-MP03F08 VHH (periplasmic extract) (VHH)
VHH: EVQLVESGGGLVQTGGSLRLSCAASGGTFSRDAMAWFRQVPGKEREFVALISWSGATTNYADSVKGRFAISRDNGKNTVYLQMNRLKPADTAIYYCAADRRPMGSRSYFEPTEYDDWGQGTQVTVSS
notes: as for B6
B8: 26-MP06A07 VHH (periplasmic extract) (VHH)
VHH: QVQLQESGGGLVQAGGSLRLSCAASGDVFVRYTMAWFRQAPGKEREFVASVTDSGRTTEYVDSVKGRFTVSRDNAKNTAYLQMNNLKPEDTAIYYCAANTDYFQIRSLDLNTWGQGTQVTVSS
notes: as for B6
B9: 23-MP06F03 VHH (periplasmic extract) (VHH)
VHH: B8 VHH with Q5V, A24V, E59D, D62H, A79V, I93V, R106K, L110A
notes: as for B6
B10: 17-MP02C09 VHH (periplasmic extract) (VHH)
VHH: QVQLQESGGGLVQAGGSLRLSCVASGSVSSINGMAWYRQGADNQRVLVAAISRVGNTAYGDSVKGRFTISRQNARNTVYLQMNSLKPEDTAVYYCNADSWGGDDYWGQGTQVTVSS
notes: as for B6
B11: 2-MP01A02 VHH (periplasmic extract) (VHH)
VHH: QVQLVESGGGLVQPGGSLRLSCATSGFTFRNNFMSWVRQAPGKGLEWVSTISYGGESTTYAESVKGRFTISRDNAKNTLYLQMNNLKPEDTAVYYCAKATSYDSIRSGSRGQGTQVTVSS
notes: as for B6
B12: 8-MP01C12 VHH (periplasmic extract) (VHH)
VHH: B11 VHH with R30S, W47F, S63A, V93I, D103T, S107G, G108A, S109P
notes: as for B6
B13: 6-MP01G05 VHH (periplasmic extract) (VHH)
VHH: QVQLQESGGGLVQAGGSLRLSCAASGRTFSSYAMGWFRQAPGKEREFVAVISWNVDNTEYTDSVKGRFTISRDNDKNMVYLQMNSLKPEDTAVYYCAADSIPLSSDMSPTATEYGYWGQGTQVTVSS
notes: as for B6
B14: 3-MP01E03 VHH (periplasmic extract) (VHH)
VHH: QVQLVESGGGLVQAGGSLRLSCTASGRTLSSYSMAWFRQAADKGREFVTAISSSGVVTHVLDSVKGRFTISRDNAKNTVYLQMNSLQPEDTALYFCAGTASSYSTYEANYNYWGQGTLVTVSS
notes: as for B6
B15: 1-MP01H01 VHH (periplasmic extract) (VHH)
VHH: EVQLVESGGGLVQAGGSLRLSCAASGRTFRTHNMGWFRRAPGKEREFVAAISWNVDNTLYADSVKGRFTISRDNGRNMVYLQMNSLKPEDTAVYYCAADNIPLSSDVAATATEYDYWGQGTQVTVSS
notes: as for B6
B16: 10-MP05F03 VHH (periplasmic extract) (VHH)
VHH: QVQLVESGGGLVQAGGSLRLSCAASGIPFDNYAMGWFRQAPGKEREFVAARDLEGIITRYGDSVKGRFTISRGNAKNTVFLQMNSLKPEDTAVYYCAARDGGVVAGSRSSAQYNYWGQGTQVTVSS
notes: as for B6
B17: 5-MP01F05 VHH (periplasmic extract) (VHH)
VHH: EVQLVESGGGLVQAGGSLRLSCAASIRAFTTWSMAWFRQAPGKEREYVARINVSGSVTYYADFVKGRFTISRDNAKKTMYLEMNNLKPEDTALYYCAADRTGVGTNDYNYWGQGTQVTVSS
notes: as for B6

The target in one assay is T1, human IL-2Rγ (common cytokine receptor …). Description: binding ELISA, periplasmic extract on coated human IL-2Rγ. As for the experimental part:
In a binding ELISA, human or mouse IL-2Rα, IL-2Rβ and IL-2Rγ proteins were coated directly on maxisorp microtiter plates overnight at 4° C. Free binding sites were blocked using 4% Marvel in PBS for 1 hour. Next, 1:5 dilution of P.E. in 1% Marvel/PBS were added to wells and incubated for 1 hour. […] Binding specificity was determined based on O.D. at 450 nm values compared to negative controls.
On to B1, for which the “P.E. binding ELISA OD450” value was 0.485 OD450 nm.
Turning to B2, the “P.E. binding ELISA OD450” value came out at 0.858 OD450 nm.

The target in a further assay is T2, cynomolgus monkey IL-2Rα/CD25 subunit. Description: ELISA, bivalent; EC50 cyno vs human subunit. As for the experimental part:
Monospecific monovalent and bivalent IL-2Rα-, IL-2Rβ- and IL-2Rγ-specific antibodies that were selected on human IL-2R subunits, were evaluated for their cross-reactivity in an ELISA. Human and cynomolgus monkey receptor subunits (Acrobiosystems, KactusBiosystems) were coated at 1 μg/mL in PBS (pH 7.4) in a Maxisorp plate (Nunc) and incubated overnight at 4° C. The plates were further washed with PBS-Tween pH 7.4 and incubated with 1% cascin/PBS-Tween blocking solution for 1 hour shaking at 400 rpm. Subsequently, the plate was washed three times with PBS-Tween pH 7.4, after which the test antibodies diluted in 0.1% casein/PBS-Tween were added to the plate and incubated for 1 hour. The plate was again washed three times, after which goat anti-human IgG Fc (HRP) detection antibody (abcam) was added to the plate and incubated for 30 min. The colouring reaction was performed with TMB (Sigma-Aldrich) and stopped with 0.5N H₂SO₄.
Absorbance was measured at 450 nm with the reference wavelength of 620 nm using spectrophotometer. Final analysis and graphic output were performed with GraphPad Prism version 8 (GraphPad Software). The dose-response binding curves were fit to a nonlinear regression model (log (agonist) vs. response with a variable slope (four parameters)).
For orientation: In an ELISA, binding on a coated surface is turned into a signal by an enzyme label.
As to B3, the Fold change was 1.2 fold.
Molecule B4 yielded a Fold change of 1.1 fold.
B5 showed a Fold change of 1 fold.

The next assay shares this target. Description: ELISA, bivalent VHH-hFc. A digest of the protocol: (§1)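 Human and cyno receptor subunits coated at 1 μg/mL in PBS pH 7.4 overnight at 4° C, casein-blocked; test antibodies bound 1 h, detected with anti-human IgG Fc-HRP and TMB, A450 (ref 620 nm). EC50 from four-parameter variable-slope nonlinear fit of dose-response binding curves.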
Turning to B3, a half-maximal response (EC50) required 0.11 nM.
The molecule B4 returned an EC50 of 0.084 nM.
As to B5, the EC50 amounted to 0.051 nM.

A further assay concerns the target T3, human interleukin-2 receptor α-chain …. Description: ELISA, bivalent VHH-hFc. A digest of the protocol:
as §1
In the case of B3, the EC50 was determined as 0.093 nM.
Still for that read-out and setting: the result for B4 reads 0.074 nM; that for B5, 0.049 nM.

A further assay deals with T4, human interleukin-2 receptor β-chain …. Description: P.E. binding ELISA. A digest of the protocol:
(§2)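 Read-out: OD at 450 nm, specificity called versus negative controls. Receptor chains (human or mouse IL-2Rα, β, γ) were coated directly overnight at 4° C; 4% Marvel/PBS block 1 h; P.E. at 1:5 dilution in 1% Marvel/PBS incubated 1 h.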
For B6, the OD450 nm is 1.38 OD450 nm.
Still for that read-out and setting: under B7 stands 0.245 OD450 nm.
Turning to B8, the OD450 nm was determined as 1.03 OD450 nm.
The same measure, in the same setting: the result for B9 reads 0.54 OD450 nm; that for B10, 1.21 OD450 nm.

In a further assay the target is T3, human interleukin-2 receptor α-chain …. Description: P.E. binding ELISA. A digest of the protocol:
as §2
As to B11, the OD450 nm amounted to 2.62 OD450 nm.
Take B12: the OD450 nm was found to be 2.53 OD450 nm.
Regarding B13, the OD450 nm was found to be 1.79 OD450 nm.
As to B14, the OD450 nm was determined as 2.54 OD450 nm.
The same measure, in the same setting: the result for B15 reads 1.71 OD450 nm; that for B16, 2.46 OD450 nm.
On to B17, for which the OD450 nm came to 2.62 OD450 nm.

A further assay deals with T1, human IL-2Rγ (common cytokine receptor …). Description: SPR off-rate ranking, periplasmic extract over immobilised human IL-2Rγ. As for the experimental part:
SPR was performed to determine dissociation rates using Biacore 3000 instrument (GE Healthcare). Briefly, human and mouse IL-2R proteins were immobilized on carboxylmethyl dextran sensor chip (CM5) at approximately 2500 RUs using amine coupling in acetate buffer (GE Healthcare). The VHH-containing P.E. were loaded with a flow rate of 30 uL/min and the off-rates were measured over a 120s period.
In turn, B1 registered a koff of 0.0027 s⁻¹.
In turn, B2 came in with a koff of 0.00485 s⁻¹.

The target in another assay is T4, human interleukin-2 receptor β-chain …. Description: P.E. off-rate SPR. A digest of the protocol:
(§3)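 Immobilised receptor density: ~2500 RU (CM5, amine coupling). Analyte: VHH-containing P.E., 30 uL/min. Read-out: off-rate over 120s.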
Take B6: the koff was 0.000141 s⁻¹.
Consider B7, for which the koff came out at 0.000296 s⁻¹.
B8: the koff was found to be 0.000363 s⁻¹.
Turning to B9, the koff came out at 0.00105 s⁻¹.
With B10, the koff came to 0.000848 s⁻¹.

For another assay, the target named is T3, human interleukin-2 receptor α-chain …. Description: P.E. off-rate SPR. A digest of the protocol: as §3
As to B11, the koff was determined as 0.00153 s⁻¹.
Take B12: the koff was found to be 0.000383 s⁻¹.
Still for that read-out and setting: the result for B13 reads 0.0206 s⁻¹; that for B14, 0.000799 s⁻¹; that for B15, 0.0229 s⁻¹.
For the molecule B16, the dissociation rate constant (koff) was 0.000639 s⁻¹.
With B17, the koff amounted to 0.00042 s⁻¹.
